# Measurements reported in the supplement of paper PMC9112550, “Optimization of the antimicrobial peptide Bac7 by deep mutational scanning” (BMC Biology, 2022).
# Tested on: Escherichia coli TOP10
# Assay: shrunken log2 fold change of peptide-encoding DNA abundance (4.5 h post-induction vs induction); higher = less antimicrobial activity (less host growth inhibition)
# Details: time post-induction: 4.5 h; library: site-saturation at positions 5, 18, 19, 20
# 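Note: peptides expressed intracellularly from a pBAD plasmid library in pooled LB shake-flask culture, induced with 0.3% L-arabinose, DNA abundance read by NGS, three biological replicates, DESeq2 with apeglm shrinkage.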
row,Sequence,shrunken log2 fold change
1,RRIRDRPPRLPRPRPRPYSVPRP,-0.0716
2,RRIRVRPPRLPRPRPRPYCFPRP,-0.736
3,RRIRQRPPRLPRPRPRPLENPRP,-0.0226
4,RRIRARPPRLPRPRPRPLMDPRP,0.634
5,RRIRIRPPRLPRPRPRPAWFPRP,-0.00823
6,RRIRFRPPRLPRPRPRPCSDPRP,-0.119
7,RRIRIRPPRLPRPRPRPNMNPRP,-0.773
8,RRIRRRPPRLPRPRPRPEPKPRP,1.46
9,RRIRPRPPRLPRPRPRPYMVPRP,-1.09
10,RRIRFRPPRLPRPRPRPSPYPRP,-0.481
11,RRIRFRPPRLPRPRPRPMPLPRP,-0.417
12,RRIRIRPPRLPRPRPRPPCVPRP,-0.173
13,RRIRNRPPRLPRPRPRPGLKPRP,0.265
14,RRIRRRPPRLPRPRPRPTYQPRP,0.112
15,RRIRNRPPRLPRPRPRPNRCPRP,-0.0238
16,RRIRERPPRLPRPRPRPASHPRP,-0.34
17,RRIRNRPPRLPRPRPRPTWKPRP,0.0378
18,RRIRVRPPRLPRPRPRPGSTPRP,-0.311
19,RRIRQRPPRLPRPRPRPKNMPRP,-0.646
20,RRIRERPPRLPRPRPRPEALPRP,0.0535
21,RRIRMRPPRLPRPRPRPRSFPRP,0.307
22,RRIRCRPPRLPRPRPRPPAYPRP,0.176
23,RRIRPRPPRLPRPRPRPVIFPRP,-0.11
24,RRIRFRPPRLPRPRPRPGKEPRP,-0.166
25,RRIRSRPPRLPRPRPRPISVPRP,-0.151

row,Sequence,shrunken log2 fold change
1,RRIRCRPPRLPRPRPRPTWHPRP,0.00453
2,RRIRARPPRLPRPRPRPQDLPRP,-0.0381
3,RRIRSRPPRLPRPRPRPLAEPRP,0.502
4,RRIRWRPPRLPRPRPRPLADPRP,1.06
5,RRIRTRPPRLPRPRPRPVVAPRP,0.418
6,RRIRGRPPRLPRPRPRPESFPRP,0.0921
7,RRIRTRPPRLPRPRPRPGDVPRP,0.0978
8,RRIRMRPPRLPRPRPRPDAIPRP,0.164
9,RRIRRRPPRLPRPRPRPSWLPRP,0.202
10,RRIRMRPPRLPRPRPRPAYQPRP,-0.233
11,RRIRERPPRLPRPRPRPEWDPRP,-0.105
12,RRIRNRPPRLPRPRPRPFKVPRP,0.0253
13,RRIRGRPPRLPRPRPRPVFKPRP,0.193
14,RRIRLRPPRLPRPRPRPAPNPRP,0.555
15,RRIRDRPPRLPRPRPRPYHNPRP,-0.461
16,RRIRRRPPRLPRPRPRPVFMPRP,0.251
17,RRIRFRPPRLPRPRPRPGKNPRP,0.0341
18,RRIRTRPPRLPRPRPRPFMVPRP,-0.291
19,RRIRYRPPRLPRPRPRPGSWPRP,0.0212
20,RRIRGRPPRLPRPRPRPELAPRP,2
21,RRIRTRPPRLPRPRPRPGSKPRP,0.0896
22,RRIRVRPPRLPRPRPRPFRWPRP,-0.0443
23,RRIRTRPPRLPRPRPRPLKNPRP,-0.397
24,RRIRARPPRLPRPRPRPYGYPRP,-0.294
25,RRIRERPPRLPRPRPRPLGIPRP,-0.0554

row,Sequence,shrunken log2 fold change
1,RRIRHRPPRLPRPRPRPFTQPRP,-0.0771
2,RRIRWRPPRLPRPRPRPLQPPRP,0.54
3,RRIRMRPPRLPRPRPRPAHWPRP,0.792
4,RRIRNRPPRLPRPRPRPIDTPRP,-0.0154
5,RRIRLRPPRLPRPRPRPAMWPRP,0.373
6,RRIRARPPRLPRPRPRPHTAPRP,0.172
7,RRIRYRPPRLPRPRPRPSIGPRP,-0.0122
8,RRIRCRPPRLPRPRPRPYDQPRP,-0.16
9,RRIRHRPPRLPRPRPRPRTAPRP,0.264
10,RRIRPRPPRLPRPRPRPGHHPRP,0.0565
11,RRIRRRPPRLPRPRPRPPDHPRP,0.762
12,RRIRNRPPRLPRPRPRPWSYPRP,-0.0175
13,RRIRVRPPRLPRPRPRPSTAPRP,-0.0759
14,RRIRYRPPRLPRPRPRPWPEPRP,-0.0592
15,RRIRERPPRLPRPRPRPPDLPRP,0.16
16,RRIRFRPPRLPRPRPRPSCYPRP,-0.839
17,RRIRLRPPRLPRPRPRPCTNPRP,-0.094
18,RRIRQRPPRLPRPRPRPMWFPRP,0.153
19,RRIRIRPPRLPRPRPRPSPQPRP,-0.512
20,RRIRRRPPRLPRPRPRPGMQPRP,0.245
21,RRIRPRPPRLPRPRPRPRMCPRP,0.152
22,RRIRPRPPRLPRPRPRPLIVPRP,-0.406
23,RRIRQRPPRLPRPRPRPAHWPRP,0.261
24,RRIRNRPPRLPRPRPRPQHHPRP,-0.432
25,RRIRDRPPRLPRPRPRPFQGPRP,-0.181

row,Sequence,shrunken log2 fold change
1,RRIRGRPPRLPRPRPRPHYHPRP,-0.421
2,RRIRLRPPRLPRPRPRPPTEPRP,0.296
3,RRIRPRPPRLPRPRPRPELVPRP,0.442
4,RRIRPRPPRLPRPRPRPEDHPRP,-0.131
5,RRIRARPPRLPRPRPRPFDPPRP,0.0109
6,RRIRVRPPRLPRPRPRPCRWPRP,0.182
7,RRIRYRPPRLPRPRPRPYLQPRP,-1.9
8,RRIRTRPPRLPRPRPRPLWRPRP,0.00366
9,RRIRTRPPRLPRPRPRPLEHPRP,0.104
10,RRIRLRPPRLPRPRPRPWVMPRP,-1.02
11,RRIRCRPPRLPRPRPRPWFRPRP,-0.269
12,RRIRDRPPRLPRPRPRPGWFPRP,0.297
13,RRIRLRPPRLPRPRPRPLRAPRP,0.709
14,RRIRRRPPRLPRPRPRPCPFPRP,0.0522
15,RRIRFRPPRLPRPRPRPDGGPRP,-0.537
16,RRIRDRPPRLPRPRPRPEGHPRP,-0.0429
17,RRIRARPPRLPRPRPRPMRNPRP,0.756
18,RRIRQRPPRLPRPRPRPMMEPRP,0.00908
19,RRIRVRPPRLPRPRPRPHQKPRP,0.375
20,RRIRQRPPRLPRPRPRPTKMPRP,-0.239
21,RRIRPRPPRLPRPRPRPWWCPRP,-0.258
22,RRIRGRPPRLPRPRPRPLEVPRP,0.252
23,RRIRWRPPRLPRPRPRPRESPRP,0.846
24,RRIRIRPPRLPRPRPRPTEDPRP,0.267
25,RRIRERPPRLPRPRPRPFLDPRP,-0.318

row,Sequence,shrunken log2 fold change
1,RRIRCRPPRLPRPRPRPRPPPRP,1.49
2,RRIRPRPPRLPRPRPRPQQFPRP,-0.049
3,RRIRQRPPRLPRPRPRPYWYPRP,-0.0759
4,RRIRCRPPRLPRPRPRPNDTPRP,-0.461
5,RRIRGRPPRLPRPRPRPWSKPRP,-0.423
6,RRIRNRPPRLPRPRPRPMRYPRP,-0.154
7,RRIRCRPPRLPRPRPRPLPCPRP,0.0339
8,RRIRCRPPRLPRPRPRPHWHPRP,-0.42
9,RRIRIRPPRLPRPRPRPSKIPRP,-0.441
10,RRIRSRPPRLPRPRPRPASMPRP,0.0141
11,RRIRNRPPRLPRPRPRPGQKPRP,-0.000842
12,RRIRVRPPRLPRPRPRPYPWPRP,-0.361
13,RRIRMRPPRLPRPRPRPMANPRP,0.356
14,RRIRCRPPRLPRPRPRPHHWPRP,-0.0852
15,RRIRCRPPRLPRPRPRPVMYPRP,-0.199
16,RRIRPRPPRLPRPRPRPQQCPRP,-0.462
17,RRIRKRPPRLPRPRPRPQRKPRP,0.71
18,RRIRARPPRLPRPRPRPNGVPRP,-0.00122
19,RRIRVRPPRLPRPRPRPGGIPRP,0.143
20,RRIRPRPPRLPRPRPRPEAWPRP,-0.0196
21,RRIRSRPPRLPRPRPRPKLPPRP,-0.0678
22,RRIRCRPPRLPRPRPRPQEHPRP,-0.389
23,RRIRDRPPRLPRPRPRPERFPRP,0.361
24,RRIRSRPPRLPRPRPRPLAWPRP,0.402
25,RRIRPRPPRLPRPRPRPHWSPRP,0.26
